From the supplement of paper PMC10724198
± gives the standard deviation of the averaged measurements.

Assays:
[1] = tested on: Saccharomyces cerevisiae; test: protein stability index of tFT-peptide fusion (C-terminal peptide) (PSI (0-1 scale)); higher = more stable (slower turnover)
Description: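 MPS profiling in S. cerevisiae of the tFT-X12 degron library: putative degron peptides plus stable controls, 12 aa, fused to the C-terminus of a sfGFP-mCherry timer. Cells are FACS-sorted into 8 mCherry/sfGFP bins and deep-sequenced. PSI runs from 0 (unstable) to 1 (stable). Backgrounds are wild type, das1Δ and doa10Δ at 30 °C, and wild type, das1Δ, cdc34-1 and cdc53-1 at 37 °C; 2-3 technical replicates each.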

[2] = tested on: Saccharomyces cerevisiae; test: as above; settings: genetic background: wild type; temperature: 30 C
[3] = genetic background: cdc34-1, temperature: 37 C
[4] = genetic background: cdc53-1, temperature: 37 C
[5] = genetic background: das1 deletion, temperature: 30 C
[6] = genetic background: das1 deletion, temperature: 37 C
[7] = genetic background: doa10 deletion, temperature: 30 C
[8] = genetic background: wild type, temperature: 30 C
[9] = genetic background: wild type, temperature: 37 C
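Note: PSI is a weighted mean of sequencing reads over stability bins, variants kept only with over 10 reads, mCherry proximal and sfGFP distal, peptide attached via GGGS linker.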

| Sequence | protein stability index [1, 3] | protein stability index [1, 4] | protein stability index [1, 5] | protein stability index [1, 6] | protein stability index [1, 7] | protein stability index [1, 8] | protein stability index [1, 9] | protein stability index [2] |
| --- | --- | --- | --- | --- | --- | --- | --- | --- |
| GLSGFLLLIVLY | 0.194 ± 0.027 | 0.256 ± 0.019 | 0.239 ± 0.02 | 0.417 ± 0.049 | 0.252 ± 0.0089 | 0.228 ± 0.035 | 0.35509 ± 0.00019 | 0.353 ± 0.026 |
| GLWLCRGLVRAW | 0.349 ± 0.026 | 0.382 ± 0.021 | 0.299 ± 0.021 | 0.46 ± 0.009 | 0.253 ± 0.001 | 0.289 ± 0.021 | 0.438 ± 0.014 | 0.43 ± 0.04 |
| GPFGVGALVCCM | 0.462 ± 0.016 | 0.4425 ± 0.00085 | 0.333 ± 0.032 | 0.503 ± 0.0066 | 0.304 ± 0.01 | 0.351 ± 0.017 | 0.4844 ± 0.00066 | 0.433 ± 0.0072 |
| GPNWCSVCQGVG | 0.421 ± 0.03 | 0.477 ± 0.028 | 0.43 ± 0.011 | 0.4926 ± 0.0034 | 0.446 ± 0.0064 | 0.426 ± 0.013 | 0.4733 ± 0.00063 | 0.453 ± 0.015 |
| GPPPAPSPTPSP | 0.661 ± 0.035 | 0.7253 ± 0.0049 | 0.676 ± 0.021 | 0.7217 ± 0.0055 | 0.685 ± 0.014 | 0.687 ± 0.015 | 0.699 ± 0.02 | 0.732 ± 0.023 |
| GPTLLVSRIAVI | 0.506 ± 0.026 | 0.517 ± 0.024 | 0.368 ± 0.039 | 0.565 ± 0.011 | 0.137 ± 0.0051 | 0.162 ± 0.021 | 0.291 ± 0.015 | 0.249 ± 0.011 |
| GQLIYQHIFILG | 0.662 ± 0.063 | 0.6481 ± 0.0016 | 0.47 ± 0.011 | 0.676 ± 0.025 | 0.312 ± 0.021 | 0.353 ± 0.021 | 0.5677 ± 0.0052 | 0.4678 ± 0.00024 |
| GRPYHLCLFSCF | 0.646 ± 0.018 | 0.754 ± 0.013 | 0.646 ± 0.036 | 0.754 ± 0.024 | 0.333 ± 0.024 | 0.343 ± 0.027 | 0.577 ± 0.016 | 0.353 ± 0.021 |
| GRRLGLLNLLSY | 0.649 ± 0.029 | 0.744 ± 0.0023 | 0.625 ± 0.013 | 0.724 ± 0.019 | 0.255 ± 0.016 | 0.305 ± 0.028 | 0.601 ± 0.027 | 0.456 ± 0.064 |
| GRSVGVTMFKNG | 0.614 ± 0.059 | 0.7332 ± 0.0067 | 0.627 ± 0.017 | 0.73 ± 0.018 | 0.172 ± 0.019 | 0.206 ± 0.014 | 0.479 ± 0.016 | 0.3421 ± 0.0014 |
| GRWLYSACVALN | 0.62 ± 0.072 | 0.71 ± 0.014 | 0.596 ± 0.022 | 0.7063 ± 0.0033 | 0.195 ± 0.0073 | 0.196 ± 0.026 | 0.4027 ± 0.0021 | 0.395 ± 0.017 |
| GSRVICMVVATM | 0.546 ± 0.044 | 0.611 ± 0.016 | 0.463 ± 0.041 | 0.6078 ± 0.0058 | 0.419 ± 0.035 | 0.436 ± 0.02 | 0.582 ± 0.0029 | 0.488 ± 0.022 |
| GTRREFVILYLF | 0.544 ± 0.026 | 0.675 ± 0.027 | 0.525 ± 0.016 | 0.694 ± 0.035 | 0.119 ± 0.0081 | 0.133 ± 0.035 | 0.101 ± 0.019 | 0.191 ± 0.0076 |
| GVFISFFFVFRF | 0.154 ± 0.0055 | 0.173 ± 0.037 | 0.269 ± 0.035 | 0.373 ± 0.013 | 0.354 ± 0.017 | 0.237 ± 0.025 | 0.309 ± 0.033 | 0.308 ± 0.013 |
| GVFRYKLILRKM | 0.527 ± 0.056 | 0.614 ± 0.018 | 0.586 ± 0.015 | 0.634 ± 0.017 | 0.269 ± 0.0066 | 0.272 ± 0.014 | 0.435 ± 0.012 | 0.337 ± 0.05 |
| GVLHSKGPWFSG | 0.703 ± 0.028 | 0.757 ± 0.0099 | 0.652 ± 0.0073 | 0.75 ± 0.0095 | 0.65 ± 0.014 | 0.665 ± 0.014 | 0.72815 ± 0.0004 | 0.729 ± 0.017 |
| GVLLLGSYQWVG | 0.306 ± 0.031 | 0.394 ± 0.021 | 0.368 ± 0.029 | 0.334 ± 0.0053 | 0.395 ± 0.008 | 0.373 ± 0.025 | 0.317 ± 0.0059 | 0.313 ± 0.007 |

| Sequence | protein stability index [1, 3] | protein stability index [1, 4] | protein stability index [1, 5] | protein stability index [1, 6] | protein stability index [1, 7] | protein stability index [1, 8] | protein stability index [1, 9] | protein stability index [2] |
| --- | --- | --- | --- | --- | --- | --- | --- | --- |
| GVWLRAVRGFGV | 0.706 ± 0.03 | 0.7586 ± 0.0013 | 0.646 ± 0.013 | 0.76107 ± 0.00069 | 0.652 ± 0.0083 | 0.6542 ± 0.0058 | 0.7403 ± 0.0064 | 0.738 ± 0.04 |
| GWCLGFWCLLVC | 0.0399 ± 0.0089 | 0.0444 ± 0.0049 | 0.123 ± 0.02 | 0.156 ± 0.019 | 0.0958 ± 0.005 | 0.0537 ± 0.018 | 0.068 ± 0.014 | 0.118 ± 0.093 |
| GWVVWLTGCLVF | 0.512 ± 0.028 | 0.592 ± 0.014 | 0.446 ± 0.022 | 0.586 ± 0.042 | 0.407 ± 0.0086 | 0.443 ± 0.017 | 0.621 ± 0.028 | 0.4592 ± 0.0025 |
| GYRGRITRLVNG | 0.661 ± 0.03 | 0.715 ± 0.015 | 0.639 ± 0.0079 | 0.7422 ± 0.00086 | 0.14 ± 0.024 | 0.168 ± 0.021 | 0.369 ± 0.00097 | 0.29 ± 0.035 |
| GYRYMWLWRLSA | 0.544 ± 0.027 | 0.706 ± 0.026 | 0.665 ± 0.036 | 0.762 ± 0.028 | 0.148 ± 0.0028 | 0.143 ± 0.032 | 0.235 ± 0.013 | 0.178 ± 0.095 |
| HCLGWCFSRLSS | 0.654 ± 0.043 | 0.7199 ± 0.00078 | 0.653 ± 0.021 | 0.766 ± 0.0092 | 0.186 ± 0.013 | 0.206 ± 0.027 | 0.4302 ± 0.0015 | 0.289 ± 0.012 |
| HIVYCSSEQIKC | 0.53 ± 0.048 | 0.6419 ± 0.0016 | 0.446 ± 0.026 | 0.589 ± 0.0063 | 0.482 ± 0.028 | 0.483 ± 0.029 | 0.56 ± 0.032 | 0.497 ± 0.0059 |
| HLLMLAMVGFQC | 0.5752 ± 0.0029 | 0.688 ± 0.0015 | 0.475 ± 0.038 | 0.619 ± 0.02 | 0.424 ± 0.0061 | 0.454 ± 0.022 | 0.583 ± 0.025 | 0.487 ± 0.017 |
| HVLGSIYWAIFV | 0.497 ± 0.02 | 0.493 ± 0.028 | 0.407 ± 0.024 | 0.563 ± 0.023 | 0.289 ± 0.0029 | 0.314 ± 0.03 | 0.499 ± 0.011 | 0.428 ± 0.011 |
| IGFFFACFFSVF | 0.419 ± 0.057 | 0.444 ± 0.012 | 0.403 ± 0.021 | 0.518 ± 0.0099 | 0.352 ± 0.0041 | 0.363 ± 0.022 | 0.43 ± 0.019 | 0.442 ± 0.065 |
| IGWKLNRIQKNI | 0.6858 ± 0.0052 | 0.735 ± 0.043 | 0.649 ± 0.028 | 0.728 ± 0.047 | 0.15 ± 0.021 | 0.193 ± 0.029 | 0.436 ± 0.011 | 0.326 ± 0.021 |
| IGYLGSELRFVS | 0.688 ± 0.094 | 0.741 ± 0.011 | 0.626 ± 0.0078 | 0.762 ± 0.018 | 0.384 ± 0.017 | 0.434 ± 0.04 | 0.69 ± 0.012 | 0.514 ± 0.037 |
| IISICLYFLVRC | 0.223 ± 0.003 | 0.326 ± 0.073 | 0.229 ± 0.027 | 0.391 ± 0.0067 | 0.212 ± 0.0074 | 0.212 ± 0.015 | 0.327 ± 0.0058 | 0.299 ± 0.045 |
| IKKKKRKKIKAN | 0.634 ± 0.048 | 0.728 ± 0.019 | 0.65 ± 0.024 | 0.751 ± 0.015 | 0.199 ± 0.013 | 0.211 ± 0.017 | 0.291 ± 0.021 | 0.244 ± 0.043 |
| IKWRCLFCVCVL | 0.477 ± 0.011 | 0.466 ± 0.012 | 0.429 ± 0.026 | 0.489 ± 0.0054 | 0.371 ± 0.0045 | 0.375 ± 0.014 | 0.453 ± 0.008 | 0.422 ± 0.043 |
| ILFRRRLCCFLK | 0.349 ± 0.03 | 0.434 ± 0.0052 | 0.443 ± 0.019 | 0.536 ± 0.012 | 0.506 ± 0.021 | 0.396 ± 0.018 | 0.484 ± 0.021 | 0.4735 ± 0.0015 |
